The nature of experiment [1]: Spectrophotometric enzymatic assay: cleaving activity, production of vanillin from coniferyl alcohol at 349 nm. The format is biochemical. The settings on record: spectrophotometric assay. The procedure: Stock solution 200× of coniferyl alcohol (90 mg) was prepared in ethanol (5 mL) and stored at −20° C. From this, a new stock solution 20× of coniferyl alcohol (10 mM) was freshly prepared by 1:10 dilution in Glycine-NaOH (50 mM, pH 9.0). A cuvette containing 0.750 mL Glycine-NaOH (50 mM, pH 9.0) and 0.05 mL of the substrate 20× stock was pre-warmed at 25° C. for 1.5 mins. Then, the reaction was initiated by the addition of 0.2 mL of the enzyme sample. The cleaving […] activity was measured spectrophotometrically following the production of vanillin at 349 nm (ε349=26.7 mM^−1cm^−1 experimentally determined). One unit of activity (U) is defined as the amount of enzyme required to produce 1 μmol of vanillin per min. Agilent Cary 60 UV-Vis Spectrophotometer was used for all the measurements.
Searching for alternative novel alkene cleavage oxygenases (COs) catalysing the formation of vanillin from coniferyl alcohol was performed. A set of 27 sequences and 10 COs from different branches of the phylogenetic tree were selected, named CO-02-11. Two additional enzymes were included, which are located in different clusters of the phylogenetic tree: Lignostillbene dioxygenase from Pseudomonas brassicaceraum (PbLSD, PDB: 5V2D) and aromatic dioxygenase (Ado, CO-01) from Thermothelomyces thermophilus (GenBank ID: XP_003665585). The proteins were recombinantly expressed in E. coli BL21(DE3), following the same protocol developed for IECO. […] Putative COs were screened by spectrophotometric assay, monitoring the formation of 3a upon 2a cleavage. From a set of twelve COs, four positive hits, namely CO-01, CO-03, CO-06 and CO-07 were found. Positive variants were tested in the one pot cascade and compared them with IECO In agreement with the spectrophotometric screening, all four COs converted eugenol 1a to vanillin 3a (Table 8). The first step of the cascade is efficiently performed by EUGO, and the substrate is completely consumed. […] Overall, 70±3% conversion of 1a to vanillin 3a was achieved.

A short description of experiment [2]: Bioconversion of eugenol to vanillin: one-pot concurrent cascade EUGO + alkene cleavage oxygenase (5 mM scale). The format is biochemical. As to conditions: Table 8a, EUGO FD-CFE 1 mg/mL, CO-XX FD-CFE 1 mg/mL, catalase 10 mg/mL, eugenol 5 mM. On the procedure:
Stock solutions of eugenol (100 mM) were prepared in ethanol or DMSO and stored at −20° C. Unless otherwise stated, the reaction mixtures (0.5 mL) were set up in 1.5 mL glass vials as follows: freeze-dried cell free extract of IECO/CO-XX (3 mg) and EUGO (0.5 mg) were dissolved in the reaction buffer (50 mM glycine-NaOH pH 9.0) containing sodium ascorbate (1 mM), FeSO4 (1 mM) and bovine liver catalase (5 mg, Sigma Aldrich C40). The reaction was initiated by the addition of 0.025 mL eugenol stock (final concentration 5 mM), then incubated at 30° C. and 120 rpm overnight (rotary shaker). The final content of cosolvent was 5% v/v. To improve oxygenation, the vials were placed horizontally. At certain time points, samples (0.2 mL) were quenched with methanol (0.4 mL) and the mixture was centrifuged at 20238 g for 5-10 mins. Finally, the supernatant was analysed by HPLC.
EUGO (0.5 mg CFE), CO-25 (3 mg CFE) and catalase (5 mg, Sigma product #C40) were dissolved in 50 mM Glycine-NaOH pH 9.0 or Tris-HCl pH 8.0 together with FeSO4 (1 mM) and sodium ascorbate (1 mM). Note that the buffer content of the freeze-dried biocatalyst prep was not considered for the assembling of the reaction. The reaction was started by the addition of 5 mM eugenol from a 20× stock in ethanol. The reactions—performed in glass vials—were then incubated at 30° C. and 120 rpm (25 mm shaker). Finally, samples of the reaction mixture were diluted with MeOH and analyzed by HPLC at 280 and 340 nm.

Where only a bound is given, the exact number is not on record here.

B1: CO-07: alkene cleavage oxygenase, Thermopolyspora flexuosa, SEQ ID NO: 40 (protein, listed as Thermopolyspora flexuosa)
chain: MVWFPPPKDPFDAPMRVEADIRGVQVTQGEVPEHLDGTYYRCVSDRQWPSYVENDLELFNSDGMIISFRFHKGRVDFKSRYVRTPRFVAEEKAGRALFGAYRNPFDDDPSVAGISRGLANTNVFFHGGKLYASKEDSPPILIDPDTLETIGEYDFEGALTSRTATAHPKFDPVTGEMVFFGYEAKGPGTPDIAYYEADPSGRIIHEAWLEAPYTSMVHDWAVTQNFVIFPIIPLRSDIEWIKKGQSYFQWDPYEDVYLGVMPRKGTAKDLRWYRGSNRFASHIMGAYDDGRYVYIDTPVGQTNYFPWFPDITGAPYDPERSKGYLSRWTIDTQGESDGFTETRLSDLPGEFPRMDDRQETLPYHWGIMLLTDVPGRNAPGGGFRWLMGIDLKTGRKQIYYPGDHCTLGEAIFVPAAPDAPPGVGYVLTVVARRKEMRSDLVLLDAQRLDGEPVCTLSLPMRIRMGVHGNWVSAAELAGRTD
On to B1, for which the “Screening of putative COs: formation of 3a upon 2a cleavage (hit or inactive)” value (“Screening of putative COs” for short) in experiment [1] was “positive hits”. In experiment [2] (pH 8.0), the “Reaction composition after 24 hours 1a (%)” value is given as 51%, the “Reaction composition after 24 hours 2a (%)” value came to 61%, the “Reaction composition after 24 hours 3a (%)” value is 21% and the “Reaction composition after 24 hours 5a (%)” value is recorded as 18%. For the same molecule, in experiment [2] (pH 9.0), the “Reaction composition after 24 hours 1a (%)” value was determined as 51%, the “Reaction composition after 24 hours 2a (%)” value worked out at 50%, the “Reaction composition after 24 hours 3a (%)” value is reported as 27% and the “Reaction composition after 24 hours 5a (%)” value is 23%.

B2: CO-06: alkene cleavage oxygenase, Novosphingobium sp., SEQ ID NO: 38 (protein, listed as Novosphingobium sp.)
chain: MNIRFPNNDFTSFEAPMRAEIDLKGLEVIQGEVPRQLSGGFFRLIGDRKWPAFVENDIFMLGEDGMASCFYFKDGQVDFKMRYVRTPRFVAEEKAGRALFGHYRNPFSDDPSVAGLSRGTANVTVLVHAGKMLALKEDSPAIELDPFTLETIGEYDWGGVVTAKAITAHPKIDPKTGELVFFGYCAAGPATRDIAYYEADAEGRIIHETWFEAPYTCMVHDIMVTENYVVFPITPLRHELEWIERNEPAFKWDPSEDVYLGVLPRKGKGEQVRWFKGPNQCHGHTVGAFDDGRFIYADNTFSKRSFFHFFPNTDGSEFNPADAMPFIKRLVIDMESNDDSFTEQQMFGYPCELPRIDTRFETMPYNFVTMNLLDVPEQERIGMGFQWVATMDINGQKPAKIYYAGHDCSIGEPQFVPRSDDAAEGDGYILTVVGKHREMRSELLILDAGDITAPPIATVALPFRLRSTGHGYWYGTRQLRGETNIIGAW
On to B2, for which the “Screening of putative COs” value in experiment [1] is reported as “positive hits”. Also, in experiment [2] (pH 8.0), the “Reaction composition after 24 hours 1a (%)” value amounted to 51%, the “Reaction composition after 24 hours 2a (%)” value was 79%, the “Reaction composition after 24 hours 3a (%)” value is on record as 5% and the “Reaction composition after 24 hours 5a (%)” value came out at 16%. Further, in experiment [2] (pH 9.0), the “Reaction composition after 24 hours 1a (%)” value is no more than 1%, the “Reaction composition after 24 hours 2a (%)” value stood at 71%, the “Reaction composition after 24 hours 3a (%)” value is 6% and the “Reaction composition after 24 hours 5a (%)” value worked out at 23%.

B3: CO-01: aromatic dioxygenase from Thermothelomyces thermophilus (GenBank XP_003665585), SEQ ID NO: 26 (protein, listed as Thermothelomyces thermophilus)
chain: MAHIHDLAPEVSNYSSGRLTPPTPVRFPRTPVFASMNKPCRFEGDVFDLEVSGAIPPDIDGTFFRVQPDHRFPPLFEDDIHFNGDGSVTAIRISGGHADLRQRYVRTERYLLETRARRSLFGRYRNPWTDNESVRGVIRTASNTNVVFWRGALLAMKEDGPPFAMDPVTLETLGRYDFEGQILSPTFTAHPKIDPDTGEMVCFAYEAGGDGSDCSVDVAVWTVDADGKKVEECWYKAPFAGMIHDCGITKNWVVLPLTPIKMDLERMKRGGNKFAWDPSEDQWYGVVPRRGAKSDDIIWFRADNGFHGHVAGCYELPSGEIVFDLTVADGNVFFFFPPDDNITPPADGVAKRNRLSSPTVRWIFDPKAKKSAIRTEAAGDADIWVADERVKPALTWPTNGEFSRIDDRYVTKPYRHFWQAVVDPTRPYDFEKCGPPAGGLFNCLGHYTWSDQNYHHGHNTGDPSGDGRSNGSAEEATAGKFGLQDVYFAGPTMTFQEPTFIPRQGAAEGEGYLIALLNHLDELRNDVVIFEARNLGKGPLAVIHLPLKLKLGLHGNWVDSREIEAWRRRRAENGDVGPLRVAKEPLPWQKKFAAAAQNGSNGV
Turning to B3, the “Screening of putative COs” value in experiment [1] was “positive hits”. Besides, in experiment [2] (pH 8.0), the “Reaction composition after 24 hours 1a (%)” value was no more than 1%, the “Reaction composition after 24 hours 2a (%)” value is reported as 74%, the “Reaction composition after 24 hours 3a (%)” value was determined as 9% and the “Reaction composition after 24 hours 5a (%)” value amounted to 17%. For the same molecule, in experiment [2] (pH 9.0), the “Reaction composition after 24 hours 1a (%)” value was 51%, the “Reaction composition after 24 hours 2a (%)” value was 63%, the “Reaction composition after 24 hours 3a (%)” value is recorded as 13% and the “Reaction composition after 24 hours 5a (%)” value stood at 24%.

The values are drawn from patent publication US20260176659A1, “IMPROVED METHOD FOR THE PRODUCTION OF NATURAL VANILLIN” (BASE SE, priority 2022, published 2026).
